The values below come from a protein production outcome set (Wang et al. 2014).

The nature of this data set: label from the status in PepcDB records.

Turning to “MPQAPTLQSFIAGRWFGQHPAQSLRSAIDGHEVARTHEEAPDFAEALAFGRHQGGKALLALDFQQRAQRLKALALYLSGRKEQLYALSHHSGATRADSWIDIEGGNSTLFSYAGLGARELPSGNLLHEGPAQSLSKLGSFAGSHILVPRGGVAVHINAFNFPIWGMLEKFAPCFLAGMPCIVKPASATSYLTEAAMRLMHESGLLPEGSLQLVIGATGDLLDRLQGQDLVTFTGSASTAGRLRANPNLIRHSVPFNAEADSLNCAILAPDVSPDDEEFELFIKEVAREMTVKAGQKCTAIRRAIIPAKQLDAVATRLRERLSKVVVGDPAVEGVRMGALASHEQQRDVAERLQSLLHSSDLLFGARDGFEPRGTNVSQGAFFAPTLLLARDPMAEGGAHDIEAFGPVSTLMAYDDLDQALELASRGKGSLVASLVTKSPAIAAQVIPRAAAWHGRLLVLDRECAGESTGHGSPLPQLKHGGPGRAGGGEELGGLRAVKHYLQRAAIQGSPSMLAAVTGEYVRGAKVLETEVHPFRRYFQDLRIGESLLTHRRTVTEADLVNFGCLSGDHFYMHFDEIAARESQFGKRIAHGYFVLSAAAGLFVSPGPGPVLANYGLDTLRFITPVGIGDTLQARLTCKRKIDQGKLSPQGTPQGVVAWDVEVSNQLGEVVASYDILTLVAKRTE”, the protein production result is reported as “failed”.

With “MPQDPRHPEHQYLDLVKHILENGARRMDRTGTGTLSVFGATMRFSLEDNTFPLLTTRRVFYRGVVEELLFFLRGETDSKVLEKKGVRIWEKNGAKQFLQSVGIDREEGDLGPIYGFQWRHFGARYETSASSYEGKGVDQIASAIAAIRANPASRRIVVSAWNPTDLGSMALPPCHVLFQFNVTDGKLSCAMYQRSGDMGLGVPFNIASYSLLTILVAHLTGLQPGEFVHFLGDAHVYLDHVDSLRQQIQRPPRAFPKLFVSPKGPRTEPEHFQYEDFELVGYDPHPAIKMNMSA”, the protein production entry is on record as “not failed”.

“MPQFFKRTSKIQAIIALRSIAIAIQLLLILFVNLGLAYELPWTPLVSVISLEVLFTFGSYLYYSRNHLSEKKASQKAILVQICADIIFLSLLLFFSGGATNAFVSLLLIPIAIAAVTLTPLLLTVVAFLAIASYSILLWSLPMSVMHGNMQGHFIGMGINFLFSALVVAIVVGKMARSINQQELAIAAYRENLLKQEQVTSLGVASAQVTHQLATPIATVQLLADELSEDFPDNEIVLDMQSQLTRCRDSLSEFRAMVFDIKEQVIKAINCQDLFDEITDNVRVNNPEVSLQLQKNSDEHAKDVTIDADAALLPAILNLINNAIRASKANNSNALSLTCQTIENNWQFTIRDYGKGFTLKKLNELGVKPVNSDQGFGMAVFLSHASLERLGGKLALTNHQEGGALVTLSLPISSLTSGNDYA”: the protein production entry is recorded as “failed”.

Turning to “MPQITIIVPVYNAERTLERCVRSIQAQTVVNWELLLIDDGSEDYSSKLCDEYAIQDSRIRVFHQVNGGASSARNVGLEYTKGEWVVFCDSDDWVDSNWLELFKNQIDNGTELIVQGFIPHGNLWQSRTGINFHGNVKTGILKLQEENILGFMCTKMYKREIIEQCGLRFDTELVLREDELFMLQYAEYISTIQCMEEGAYHYDMPDFSTKYGNIDLFNMFLKIYVVLKRIFSGEDNLLLQNYENDLTQSLFHSFVMRHDDRCKKLENYRKEVGKRVLGVKSLSQFSKYILAYVPSFQVAYLLLEAKAKIVKSMQLEHHHHHH”, the protein production result is given as “not failed”.

As to “MPQPGLTTPDNDALPWQTTLLLALQHVLVVAATPITSVFLIAKALHFTDTVTASVLSATFLMCGLGAILQSLGVKGVGARLPFIMVPGGAPIAIFVAIALQTNIQTAIGAVILTSLFYFIALPIFRRCLHHFPPFIIGIMLLMVSINLIRLYGGLIIGQPGSADFAHPTSIILSLGTILITLIFALAFSGILRQLAVMFGLLAGTLLGMALGSTDFSGVSHGPLFSFPQLLPFGWPIFDLSASLPLLIYAVISMAEATGQTIATAEIVNSTQNVQQAIPRTIRGDAVMSLLGGIFGTSLIITSGENIGVVRTTNVKSRFVTAAAGGLLILIAIFAPLVRLATCLPGSVVCGTAVIVFSIIGVIGIDMIAREPLHTPGKTYALAMGLAMGMLPILVPGLYQNFPAGVQMVFGNGMAAGTLTAILVNSLFNWSEKRTQARVKS”, the protein production entry is “failed”.

On to “MPQTKQPNFLFLMADQLTAFALRMYGNGVCRTPNLDRLAARSTRFANMYCNFPLCAPSRVAMLTGRLPSSVGVYDNASEFSAEVPTFLHHLALAGYSTILSGKMHFVGPEQHHGFQERLTTDIYPSDFGWTPDWREEIPIAPTGMNMRSVIEAGECRRSMQIDYDDDVVYRGVQKIYDLGRLHRDRPFFLAVSMTHPHNPYVSTREFLDLYRPEDIDMPAVPPIPFAQQDPHSQRLWYMFRQDEYDVSDAHVRAARHAYYAMVSYVDAQVGRMLDALQAMDLDESTVVVFTADHGDMLGERGLWYKWVHFDPAVRIPLLISAPGRTRPAVRHELASLVDIFPTMLELAGVSVPDDGASPPPDGRSLAQGLGVSQDEPTGVVYGEMNGEGAHAPCLAVRQGWWKLVVAEGDPPLLFNLQDDPHELRNLAGQPATRDIERQLTALVQARWDARRLHQDILHSQARRRLVQQSRLQGDFPAWDYQPFTDASRQYVRAGAQSSPALVKGKLRYPPVAPVAPQHPRPARSNLPE”, for which the protein production entry is “failed”.

With “MPQTLKPDTPAGTPAAGAVAFRRQVLPQDALLVRRVVESTGFFTPEEADVAQELVDEHLMHGAACGYHFVFATEDDDMAGYACYGPTPATEGTYDLYWIAVAPHRQHSGLGRALLAEVVHDVRLTGGRLLFAETSGIRKYAPTRRFYERAGFSAEAVLKAFYRAGDDKIIYRLEVA”, the protein production result is listed as “not failed”.

With “MPQTSSVFRYPGGKTQLYSFVHHLLKINSITDISLEPFAGGAGIPLKLLIDNRINTVWINDYDKAIYSVWDTILNDPVALISLIESVPFDYHSGHKISPEFSISFWKKQKDIYLNNKNHQHSIELAFSTLFLNRTNTSGIITAGPLGGFKQNRKTQIYARFNKETLINKINLIHSFKSQIKLTRLNTLDMIPKIRNSVDPKNSFIFFDPPYFEQGKELYYSSFNEQGHKELANGILSLKQYHWITTYDTAPQIQEDYTMAKQKYEYSLNYSANNKNRGKTAEFMFASPVTRLSSFEKVDLTPLA”, the protein production entry was “failed”.

For “MPQWRVRMHSGGLELALVLMLAAIVAVPVFKRFGLGAVLAYLVAGVVLGPDGAGVVQDAERISGAAEIGVVMLLFVIGLELSPARLKVMRHSVFGAGATQVLVTAVILGGLLMAAQLGWKSALIVGVALALSSTAVGLQLLAERKALSSDYGRLAFAILLFQDLIAIPLLAAIPLLGGSKNATLQWQDVAKAVAALALVIVCGRFVLRHLFNVVARTRMPEVFTASALLVVLGTAWIMQEAGLSASLGAFIAGVLLADSEFRHELESQIEPFEGLLLGLFFISVGMGIDLHRVVAEPWLIAAGVAILLVVKFSLLVGIGSVAKLPLRSSLMLGSVLWLGGEFAFVVFNEADRVGLLEPANHDRLVAIVGVSMALTPLLLLGMQRILNGPLRARAPKTDRPFDTIDAQTPKVLVAGMGRFGQVVARLLTARHVPFVALEHNPDTVEDLRRFGSQLYYGDPTRPELLRAAGAERIKVFVIAVDDPETNIKTVRLIRRLYPQATVLARARNRQHAWKLMDLGAEPFREVFASSLELSERVLTSLGLGEALAHDHVKRFRQHDEDLLRRQHLVYDDEAKVIQTSRDARADLMNLFEADVRADVDGEPAPTLRER”, the protein production result was “failed”.

As to “MPRLAISRLWPMLTAVALLSPLATAQQGQTLRAGELTVTLTPTQPDSNGWYRAGRLELQGTDEGIRGVETSRLRGAVLGELSPDGRWLSVLGTGGGYVQLWNVATAERQFTFLAHDKKSYDARLAAFSPDSRRLVFYSYPNELSLWDTATGVRVKLLSDVRKGGWWTADADAVFSPDGKTFVVTGGGGGAQLFDTRTGDLLQTFDRPCQSFGPGSPGGFWRGAVGATFSADGKNVAVLYAGGAARLYGVAGAGALAKASWKLDNFKPSQMRFWAGKLTLNGRELSGKTPNGLSFTLTF”, the protein production entry is “failed”.

For “MPRVDHGSPQAGPPAPCVGILLAGGQGRRFAAASGGQDKLLARLADGTAVAVRAAAALREATDAVVAVVRPESAVLAALLRGQGCHVLESEQAREGMGASLAAAARFLLAGQVPDMPERADVCLVALADMPWVRRDTLSAVRAAACADGITVPVHQGRRGHPVAFGRSLWGELAALRGDVGARELLRRHRVAAVEVDDPGVAADVDTPGDLAGDRALEHHHHHH”, the protein production result is recorded as “failed”.

Take “MPRYQATLLIELKKGILDPQGRAVEGVLKDLGHPVEEVRVGKVLEIVFPAENLLEAEEKAKAMGALLANPVMEVYALEALKELP”: the protein production result was “not failed”.

Take “MPSAEISSSTEAKQAATTVDVSYKTHVQTFGWQDWAANGASAGTTGLAKRLEAIQIKTSAPASQGGIRYRTHVQTYGWLDWVSDGASSGTTGEAKRLEAIQIELTGALATQYDVYYRVHAQTFGWLDWACNGASAGSAGYAKRLEAIQIVLVPKGGKAPGSTAAPYKELPPAVSYQSYLSGAWQNSVLDNAVSGTVGQAKQIEGIKISLQDKAVSFAGSSIQYRTYLQTYAWQDWTSNGGTSGKPGSGKRVEAVQIKLTGSIASSYDVYYRVHSQTFGWLDWACNGQSAGSAGYAKRIEAIQIVLVKKGGAAPGSTATPYKEAPPSVTYQTYISGGWQPTVADKATSGLAGQGKKTEGLRVSLKAGAQSLGNSSVKYRTYLQTYGWQSWVSNGASSAKAGSGKRMEAIEISLTGDISSQYDIYYRSYVTGYGWLGWACNGATSGTTDYAKPIEAVQAVLVKKGGAAPGSTSNAYLKPEVTGPFEISFSPSGASNFGGLVSIEPDHDVILVASAKGGAGGYQYRYRAELIGGSIQTLKDYSGSSSYTWRPNTPGRYKMYVDVKDSTGTVKTAMFQMSVGLSGIDVSEHQGTIDWKKVKAAGIDYAMIRAGFGWEEIDDQTDASLVQNVTGAKQAGLPFGLYHYSYADTVEEAKKEAEFLLDILEANNIAPSDLSYPIAFDIEEPDRLNVSQRRVNTDMVNAFCEIIRDAGYLPMVYASKTVIQDYLYYDEISANNIWMAAWTSTPNDTEIFDNCFPVDMWQYSESGTVDGINGRVDLNICYTTVFRDGSADTTQKGKVVVDAGSSLNVRKAPSVNADVVGSLYKDDIVTIISETSGWYQIVTSTGVSGYVSAEYIQKI”: the protein production result is recorded as “failed”.

As to “MPSEKEILDALSKVYSEQVIQADDYFRQAIFELASQLEKEGMSSLLATKIDSLINQYILTHQFDAPKSIFDLSRLVKTKASHYKGTAISAIMLGSFLSGGPK”, the protein production entry is “not failed”.

Regarding “MPSGQEGLDKFHNLNKGKTMFMQRLITTLILVPLVLLAIFYAPSWILWGVVLVILLLAGMECFKLIPVDNLTVQACFLIFLLMCFWACGYFYSYWLSVGLLVWLLNGLAILTYPRSQNYWGYPIVVAIASLILLPLFTQSLMQISFLQQGKELLVYLLFLIWASDIGAYLTGKQWGKHKLIPKVSPGKSWEGVTGGVILAMIVATLGYYYFIPYSIYIWFGLALSTVVISIFGDLFISILKRRCQLKDTGNIIPGHGGILDRLDSLIAALPWFYFGLTYIPLGI”, the protein production entry is “failed”.

For the sequence “MPSIKIRENEPFEIAIRRFKRACEKAGVLSEVRRREYYEKPTEERKRKAAAAIKRHLKKLSRERFALQNLRKGRPQQLEHHHHHH”, the protein production result is “not failed”.

In the case of “MPSKQDVLLLDYWDQWAEAYRINGKSINTVYRYKLFRKHLKSRFDGRKLNSIRPIEWQKFINDFAAGKDRKEKTTRKRPRERSKDIVTKMNSYVRGMVKAAINERILFSDFTFGTKTSGVRSSGKVKVLEHHHHHH”, the protein production entry was “not failed”.

Consider “MPSLCKLNPCIQTHKEVIMDNLITQLLFSASITGPICVMLLLGVLLKRIHLINDNFIEVASKLVFQVTLPAMLFLSIVNAKHDFSSSSHLIIYGLIANFVFFLFTIYSTRFAFKNKQNHGVIIQGGFRANTAIIALAYVANAYGNTGVALAAIYVASTTILYNIQAVIALTPKNENNKKQAVGIIIKTLTKNPLIISIVLGIICSLLSIPVPGMLSQAGQYFANMTLPLALLCAGGSLNLHSMKEESAATWFATSYKLILSPLFITSGGILVGFRGLELGLIFFMSAAPTAAASYVMARAMGGNAILAANIIAQTTVASLFTCTLGIFVLSSFNLI”, for which the protein production result is on record as “failed”.
